# Test results taken from publication PMC6468243, “Mechanistic characterization of the DEAD-box RNA helicase Ded1 from yeast as revealed by a novel technique using single-molecule magnetic tweezers”.
# Target: Ded1-His6 (Saccharomyces cerevisiae? (paper says …, UniProt P06634 1-604))
# Assay: competition (magnetic tweezers displacement assay); 1 mM ATP; 10 nM Ded1; against 200 nM 5'ss-11 bp RNA; effective competitor; Magnetic tweezers, Fhold 7 pN, 10 nM Ded1, 1 mM ATP, 200 nM 5'ss-11 bp RNA; buffer, salt, pH and temperature not in the material. Table 1 and Figures 4-6 (duplex displacement/unwinding kinetics) left out as enzyme activity without a direct binding read-out
# Conditions: protein: recombinant; tags: His6 (pET22b); single strand
# Ded1-His6 (Saccharomyces cerevisiae?, sequence (P06634 whole entry): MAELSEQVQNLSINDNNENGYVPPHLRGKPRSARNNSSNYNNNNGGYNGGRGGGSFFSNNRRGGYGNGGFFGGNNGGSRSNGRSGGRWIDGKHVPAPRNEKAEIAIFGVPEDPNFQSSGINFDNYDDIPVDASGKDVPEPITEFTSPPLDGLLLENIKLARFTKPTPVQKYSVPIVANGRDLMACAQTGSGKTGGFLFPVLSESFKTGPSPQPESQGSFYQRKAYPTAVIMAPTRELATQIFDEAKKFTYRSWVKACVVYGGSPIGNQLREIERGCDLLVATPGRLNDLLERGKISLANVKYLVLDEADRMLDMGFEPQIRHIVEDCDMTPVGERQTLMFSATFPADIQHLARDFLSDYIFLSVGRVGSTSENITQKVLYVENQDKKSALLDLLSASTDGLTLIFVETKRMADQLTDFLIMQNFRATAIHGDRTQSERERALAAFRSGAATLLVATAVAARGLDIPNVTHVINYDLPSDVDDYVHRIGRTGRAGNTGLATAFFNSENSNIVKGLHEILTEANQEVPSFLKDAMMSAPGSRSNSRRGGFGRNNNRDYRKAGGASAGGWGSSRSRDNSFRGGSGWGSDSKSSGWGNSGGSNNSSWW
binder,measurement,value
UCAUACUUUUCUUUUCUUUUCCAUC (ssRNA) [ssRNA01 (RNA01)],binding result,binds
